Data: paper PMC10415149, “The role of catalytic and regulatory domains of human PrimPol in DNA binding and synthesis”

How the values were obtained:
[1] = target: T1, PrimPol1-475 (RBM deleted) (Homo sapiens, UniProt Q96LW4 1-475); test: EMSA; 1 mM Mn2+, 1 mM ATP, 200 uM dNTPs, 8 C; EMSA: 40 mM HEPES pH 7.0, 50 mM KCl, 1 mM DTT, 5% glycerol, 0.1 mg/ml BSA, 1 mM MnCl2, 300 nM DNA, 24 C 20 min then ice (RPA assays: 50 nM DNA, 25 nM RPA, 8 C); 5% native PAGE, 0.5x Tris-glycine pH 8.3, 4 C; details: protein: recombinant; tags: N-terminal SUMO-HIS10; label: 32P
T1 sequence: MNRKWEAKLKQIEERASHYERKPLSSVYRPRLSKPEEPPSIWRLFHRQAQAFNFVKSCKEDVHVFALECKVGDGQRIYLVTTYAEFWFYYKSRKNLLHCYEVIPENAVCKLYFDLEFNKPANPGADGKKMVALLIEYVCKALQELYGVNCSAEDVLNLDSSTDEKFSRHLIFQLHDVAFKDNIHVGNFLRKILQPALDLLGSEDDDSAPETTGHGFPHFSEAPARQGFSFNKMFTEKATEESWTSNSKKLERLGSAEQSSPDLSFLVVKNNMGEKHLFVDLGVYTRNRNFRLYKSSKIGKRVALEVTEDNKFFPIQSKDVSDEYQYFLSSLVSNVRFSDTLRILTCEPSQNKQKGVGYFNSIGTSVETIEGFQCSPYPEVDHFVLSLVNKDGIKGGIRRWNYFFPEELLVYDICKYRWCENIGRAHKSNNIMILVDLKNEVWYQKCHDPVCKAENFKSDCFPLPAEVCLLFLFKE

[2] = target: T2, PrimPol WT (Homo sapiens, UniProt Q96LW4 1-560); test: as above; details: protein: recombinant; tags: N-terminal SUMO-HIS10; label: 32P
T2 sequence: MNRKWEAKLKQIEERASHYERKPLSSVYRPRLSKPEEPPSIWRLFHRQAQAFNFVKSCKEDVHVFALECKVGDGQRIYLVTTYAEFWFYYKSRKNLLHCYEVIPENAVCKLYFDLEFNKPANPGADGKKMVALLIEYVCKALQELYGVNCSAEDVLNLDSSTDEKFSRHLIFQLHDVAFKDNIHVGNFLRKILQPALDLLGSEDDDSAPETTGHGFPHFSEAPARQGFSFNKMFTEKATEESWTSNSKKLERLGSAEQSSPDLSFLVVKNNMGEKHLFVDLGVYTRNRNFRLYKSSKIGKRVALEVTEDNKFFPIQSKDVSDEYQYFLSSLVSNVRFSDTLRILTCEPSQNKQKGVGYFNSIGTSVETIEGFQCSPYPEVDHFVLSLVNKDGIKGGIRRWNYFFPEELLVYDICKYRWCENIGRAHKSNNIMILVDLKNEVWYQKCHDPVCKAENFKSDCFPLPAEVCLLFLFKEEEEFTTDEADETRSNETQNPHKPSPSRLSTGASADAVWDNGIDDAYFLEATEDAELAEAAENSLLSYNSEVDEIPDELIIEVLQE

[3] = target: PrimPol WT;RPA (Homo sapiens;Homo sapiens, UniProt Q96LW4;P27694;P15927;P35244 1-560;1-616;1-270;1-121, |); test: EMSA; PrimPol added to preformed RPA:DNA; 1 mM Mn2+, ATP, dNTPs, 8 C; EMSA: 40 mM HEPES pH 7.0, 50 mM KCl, 1 mM DTT, 5% glycerol, 0.1 mg/ml BSA, 1 mM MnCl2, 300 nM DNA, 24 C 20 min then ice (RPA assays: 50 nM DNA, 25 nM RPA, 8 C); 5% native PAGE, 0.5x Tris-glycine pH 8.3, 4 C; details: protein: recombinant;recombinant; tags: N-terminal SUMO-HIS10;; copies: 1;1;1;1; label: 32P
[4] = target: T3, PrimPol1-363 (NTD);PrimPol363-560 (CTD) (Homo sapiens;Homo sapiens, UniProt Q96LW4;Q96LW4 1-363;363-560, |); test: EMSA; 1 mM Mn2+; separate NTD and CTD mixed; EMSA: 40 mM HEPES pH 7.0, 50 mM KCl, 1 mM DTT, 5% glycerol, 0.1 mg/ml BSA, 1 mM MnCl2, 300 nM DNA, 24 C 20 min then ice (RPA assays: 50 nM DNA, 25 nM RPA, 8 C); 5% native PAGE, 0.5x Tris-glycine pH 8.3, 4 C; details: protein: recombinant;recombinant, tags: N-terminal SUMO-HIS10;N-terminal SUMO-HIS10, copies: 1;1
T3 sequence 1: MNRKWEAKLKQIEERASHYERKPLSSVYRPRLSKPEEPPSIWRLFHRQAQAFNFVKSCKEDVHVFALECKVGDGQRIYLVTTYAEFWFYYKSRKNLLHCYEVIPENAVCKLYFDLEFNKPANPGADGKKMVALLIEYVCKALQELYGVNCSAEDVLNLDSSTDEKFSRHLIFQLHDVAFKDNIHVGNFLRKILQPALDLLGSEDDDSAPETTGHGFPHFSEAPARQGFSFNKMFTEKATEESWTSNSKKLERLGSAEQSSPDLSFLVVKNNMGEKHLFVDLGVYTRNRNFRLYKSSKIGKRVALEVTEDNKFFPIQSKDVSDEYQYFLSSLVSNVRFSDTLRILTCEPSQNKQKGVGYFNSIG
T3 sequence 2: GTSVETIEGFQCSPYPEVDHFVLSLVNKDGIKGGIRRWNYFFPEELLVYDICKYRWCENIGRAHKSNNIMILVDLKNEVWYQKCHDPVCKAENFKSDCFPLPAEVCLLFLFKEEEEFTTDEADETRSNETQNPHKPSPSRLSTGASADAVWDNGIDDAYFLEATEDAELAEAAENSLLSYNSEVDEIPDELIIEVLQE

[5] = target: T4, PrimPol1-363 (NTD) (Homo sapiens, UniProt Q96LW4 1-363); test: EMSA; 1 mM Mn2+, 1-3 uM protein; EMSA: 40 mM HEPES pH 7.0, 50 mM KCl, 1 mM DTT, 5% glycerol, 0.1 mg/ml BSA, 1 mM MnCl2, 300 nM DNA, 24 C 20 min then ice (RPA assays: 50 nM DNA, 25 nM RPA, 8 C); 5% native PAGE, 0.5x Tris-glycine pH 8.3, 4 C; details: protein: recombinant; tags: N-terminal SUMO-HIS10; label: 5' Cy5
T4 sequence: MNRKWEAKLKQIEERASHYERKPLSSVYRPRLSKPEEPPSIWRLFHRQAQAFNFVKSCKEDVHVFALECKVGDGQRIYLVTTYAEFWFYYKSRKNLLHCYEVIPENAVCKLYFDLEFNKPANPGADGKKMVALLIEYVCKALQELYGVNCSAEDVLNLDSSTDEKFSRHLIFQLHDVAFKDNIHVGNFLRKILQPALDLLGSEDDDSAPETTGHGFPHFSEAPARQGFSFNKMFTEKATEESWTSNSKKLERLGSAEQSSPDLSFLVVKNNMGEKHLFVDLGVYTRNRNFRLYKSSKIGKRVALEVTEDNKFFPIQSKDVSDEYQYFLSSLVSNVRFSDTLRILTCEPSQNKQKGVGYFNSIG

[6] = target: T5, PrimPol363-560 (CTD) (Homo sapiens, UniProt Q96LW4 363-560); test: as above; details: protein: recombinant; tags: N-terminal SUMO-HIS10; label: 5' Cy5
T5 sequence: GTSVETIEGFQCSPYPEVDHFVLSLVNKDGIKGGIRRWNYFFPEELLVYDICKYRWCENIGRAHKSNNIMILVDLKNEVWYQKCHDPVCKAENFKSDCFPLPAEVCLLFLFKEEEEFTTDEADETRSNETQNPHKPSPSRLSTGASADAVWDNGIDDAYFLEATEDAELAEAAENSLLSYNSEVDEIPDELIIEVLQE

[7] = target: T1, PrimPol1-475 (RBM deleted); test: EMSA; 1 mM Mn2+; EMSA: 40 mM HEPES pH 7.0, 50 mM KCl, 1 mM DTT, 5% glycerol, 0.1 mg/ml BSA, 1 mM MnCl2, 300 nM DNA, 24 C 20 min then ice (RPA assays: 50 nM DNA, 25 nM RPA, 8 C); 5% native PAGE, 0.5x Tris-glycine pH 8.3, 4 C; details: protein: recombinant; tags: N-terminal SUMO-HIS10; label: Cy5 at 5' of template; template 5' overhang 1 nt, 3' overhang 11 nt
[8] = target: T2, PrimPol WT; test: as above; details: protein: recombinant; tags: N-terminal SUMO-HIS10; label: Cy5 at 5' of template; template 5' overhang 1 nt, 3' overhang 11 nt

PrimPol WT;RPA, sequence (P27694 whole entry, chain 2 of 3): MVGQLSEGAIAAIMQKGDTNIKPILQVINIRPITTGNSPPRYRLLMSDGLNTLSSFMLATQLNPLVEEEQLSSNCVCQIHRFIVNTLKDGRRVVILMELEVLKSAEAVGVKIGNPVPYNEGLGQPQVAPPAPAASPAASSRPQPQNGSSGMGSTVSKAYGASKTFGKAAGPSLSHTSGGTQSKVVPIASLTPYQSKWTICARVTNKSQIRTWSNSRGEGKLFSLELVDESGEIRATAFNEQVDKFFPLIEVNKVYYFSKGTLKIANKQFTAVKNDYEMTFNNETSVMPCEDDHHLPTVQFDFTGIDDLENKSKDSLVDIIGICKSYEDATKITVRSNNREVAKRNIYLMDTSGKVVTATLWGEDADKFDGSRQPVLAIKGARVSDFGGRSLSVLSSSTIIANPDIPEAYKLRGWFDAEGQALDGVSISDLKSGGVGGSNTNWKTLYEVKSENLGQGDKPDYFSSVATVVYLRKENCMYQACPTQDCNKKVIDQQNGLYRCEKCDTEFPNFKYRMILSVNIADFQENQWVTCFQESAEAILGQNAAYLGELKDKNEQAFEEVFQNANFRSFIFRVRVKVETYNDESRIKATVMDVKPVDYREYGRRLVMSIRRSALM
PrimPol WT;RPA, sequence (P15927 whole entry, chain 3 of 3): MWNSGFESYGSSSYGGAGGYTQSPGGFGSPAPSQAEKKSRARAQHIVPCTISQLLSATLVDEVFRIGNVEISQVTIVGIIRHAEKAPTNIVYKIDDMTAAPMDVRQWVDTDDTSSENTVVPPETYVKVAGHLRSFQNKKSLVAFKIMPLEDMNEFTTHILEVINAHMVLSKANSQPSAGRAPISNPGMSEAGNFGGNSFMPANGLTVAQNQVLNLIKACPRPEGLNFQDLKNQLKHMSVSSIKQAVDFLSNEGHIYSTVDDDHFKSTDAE
PrimPol WT;RPA, sequence (P35244 whole entry, chain 4 of 3): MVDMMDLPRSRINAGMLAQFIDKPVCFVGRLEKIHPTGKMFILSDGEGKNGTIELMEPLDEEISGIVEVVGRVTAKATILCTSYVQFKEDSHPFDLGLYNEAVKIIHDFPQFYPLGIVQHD

B1: Acctg55 (ssDNA)
DNA: AAAAAAAAAAAAAAAAAAAAAAAAAAAAAAAAAAAAAAAAACCTGAAAAAAAAAA
[1]
  binding result: binds
[2]
  binding result: binds
[3]
  binding result: binds

B2: Template-55/Primer-18 (dsDNA)
DNA 1: GACTACATTTCATCTGGCTTGGGCTTCATCGTTGTCGCAGACCTGGTGGATACCG
DNA 2: CGGTATCCACCAGGTCTG
[4]; label: 5' 32P on Primer-18, template 5' overhang 37 nt
  binding result: binds

## AAAAAAAAAACCTGAAAAAAAAAA (ssDNA) [Cy5-Acctg24]
[5]
  binding result: binds
[6]
  binding result: no binding
[4]; label: 5' Cy5
  binding result: no binding

B3: p-p-p-12/Cy5-Acctg24 (mixed)
DNA 1: AAAAAAAAAACCTGAAAAAAAAAA
DNA 2: AGGTTTTTTTTT
modifications: primer 5'-triphosphate; primer nt 1 is ribo-A, rest DNA
[7]
  Kd: 90 ± 10 nM
[8]
  Kd: 490 ± 130 nM
